Laboratory results: patent CN117247456A (SANYOU BIO INC, dated 2023)

Columns and labels:
[1] = molecular target: T1, 人PD-L1 on huPD-L1-CHO-S细胞 (human, UniProt Q9NZQ7 19-290); assay: flow cytometry on huPD-L1-CHO-S cells (reference antibody)
T1 construct: whole, on cells; also called 细胞表面PD-L1

[2] = molecular target: T2, 重组人PD-L1-mFc (human, UniProt Q9NZQ7 19-238); assay: ELISA, plate coated with PD-L1-mFc, anti-human IgG Fc-HRP (reference antibody)
T2 construct: also called 人重组蛋白PD-L1-mFc; PD-L1蛋白
T2 sequence (Q9NZQ7 19-238 limits assumed): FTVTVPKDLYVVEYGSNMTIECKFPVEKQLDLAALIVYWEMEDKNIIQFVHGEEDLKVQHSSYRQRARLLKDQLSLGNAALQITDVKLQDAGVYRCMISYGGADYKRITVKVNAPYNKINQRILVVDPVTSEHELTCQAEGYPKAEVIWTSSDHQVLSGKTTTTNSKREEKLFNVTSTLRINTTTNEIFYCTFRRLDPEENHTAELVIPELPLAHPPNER

[3] = molecular target: 重组人PD-L1-His (human, UniProt Q9NZQ7 19-238); assay: SPR, Biacore T200, PD-L1-His as analyte (reference antibody)
Sequence of 重组人PD-L1-His (Q9NZQ7 19-238 limits assumed): as above

Measured: binding result

T1 sequence (Q9NZQ7 19-290): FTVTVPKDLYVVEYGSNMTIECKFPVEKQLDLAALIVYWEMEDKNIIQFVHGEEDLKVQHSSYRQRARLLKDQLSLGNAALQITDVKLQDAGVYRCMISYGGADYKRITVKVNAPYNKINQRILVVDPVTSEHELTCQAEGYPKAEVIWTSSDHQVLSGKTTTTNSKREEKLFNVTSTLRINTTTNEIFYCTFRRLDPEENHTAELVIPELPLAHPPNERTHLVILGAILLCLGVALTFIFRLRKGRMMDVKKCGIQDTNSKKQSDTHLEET

B1: 抗人PD-L1抗体D21-4 (antibody, V domains shown)
VH: EVQLVESGGGLVQPGGSLRLSCAASRTDRNINTMHWYRQAPGKGREWVGTIFIDLNTIVTDSVKGRFTISRDNAKNTLYLQMNTLRAEDTAVYYCAADVSGYGRAWGQGTTVTVSS
notes: also called 亲本抗体D21-4; 亲本PD-L1抗体D21-4; not shown: rest of the 'complete control antibody' (constant part / Fc) is not described
binds: all assays above
